Measured values from patent US20070202051A1, “Aerosols for sinunasal drug delivery” (Pari GmbH, priority 2006, published 2007).

Legend:
[1] = at 25° C.; cited from earlier work
[2] = Aerosol droplet size (mass median diameter, geometric standard deviation) by laser diffraction; assay type: physicochemical; conditions: aerosol generator of Example 5 (LC Sprint Junior-like + PARI SINUS); Example 9
[3] = Physicochemical properties of the liquid test formulations

| Compound | aqueous solubility [1] | mass median diameter of the aerosol [2] [µm] | dynamic viscosity of the solution [3] [mPa·s] | osmolality of the solution [3] [mOsm/kg] | pH of the solution [3] | surface tension of the solution [3] [mN/m] |
| --- | --- | --- | --- | --- | --- | --- |
| OC[C@H]1O[C@@H]2O[C@H]3[C@H](O)[C@@H](O)[C@@H](O[C@H]4[C@H](O)[C@@H](O)[C@@H](O[C@H]5[C@H](O)[C@@H](O)[C@@H](O[C@H]6[C@H](O)[C@@H](O)[C@@H](O[C@H]7[C@H](O)[C@@H](O)[C@@H](O[C@H]1[C@H](O)[C@H]2O)O[C@@H]7CO)O[C@@H]6CO)O[C@@H]5CO)O[C@@H]4CO)O[C@@H]3CO [α-cyclodextrin] | about 145 mg/mL |  |  |  |  |  |
| DNAse |  | 3.19 | 0.98 | 285 | 6.5 | 72.1 |
